Results published in patent US20190270826A1 (Janssen / Centocor, published 2019).
Positions count from the first letter of the chain named.

T1: recombinant human IL1RAP ECD (human, UniProt Q9NPH3 21-367)
T1 construct: His-tagged; also called hIL1RAP-ECD; rhuIL1RAP
T1 sequence: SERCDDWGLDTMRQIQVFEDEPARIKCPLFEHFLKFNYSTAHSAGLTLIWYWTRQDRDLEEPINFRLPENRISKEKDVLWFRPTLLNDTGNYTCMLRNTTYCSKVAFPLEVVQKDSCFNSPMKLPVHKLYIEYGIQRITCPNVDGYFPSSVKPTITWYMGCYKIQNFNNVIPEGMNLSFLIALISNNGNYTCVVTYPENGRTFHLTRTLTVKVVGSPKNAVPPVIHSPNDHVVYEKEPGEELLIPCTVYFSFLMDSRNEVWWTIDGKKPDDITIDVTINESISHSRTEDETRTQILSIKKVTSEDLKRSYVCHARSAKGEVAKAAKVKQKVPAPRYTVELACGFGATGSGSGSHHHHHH

T2: recombinant cyno IL1RAP ECD (cynomolgus monkey, UniProt P59822 21-367 (rhesus entry))
T2 construct: also called rcynoIL1RAP
T2 sequence: T1 sequence with L183F, T273P, K326T

T3: cyno IL1RAP ECD displayed on HEK-293F cells (pDisplay) (cynomolgus monkey, UniProt P59822 21-367 (rhesus entry))
T3 sequence: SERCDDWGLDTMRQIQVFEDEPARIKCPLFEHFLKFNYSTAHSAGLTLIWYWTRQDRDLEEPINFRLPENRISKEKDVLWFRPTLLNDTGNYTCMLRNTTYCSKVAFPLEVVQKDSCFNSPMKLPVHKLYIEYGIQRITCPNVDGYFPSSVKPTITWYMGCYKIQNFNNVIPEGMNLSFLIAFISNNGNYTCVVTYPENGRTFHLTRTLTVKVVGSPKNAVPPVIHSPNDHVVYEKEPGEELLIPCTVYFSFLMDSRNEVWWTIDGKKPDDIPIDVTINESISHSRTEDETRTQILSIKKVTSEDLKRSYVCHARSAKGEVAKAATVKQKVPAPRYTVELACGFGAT

T4: mouse IL1RAP ECD displayed on HEK-293F cells (pDisplay) (mouse, UniProt Q61730 21-367)
T4 sequence: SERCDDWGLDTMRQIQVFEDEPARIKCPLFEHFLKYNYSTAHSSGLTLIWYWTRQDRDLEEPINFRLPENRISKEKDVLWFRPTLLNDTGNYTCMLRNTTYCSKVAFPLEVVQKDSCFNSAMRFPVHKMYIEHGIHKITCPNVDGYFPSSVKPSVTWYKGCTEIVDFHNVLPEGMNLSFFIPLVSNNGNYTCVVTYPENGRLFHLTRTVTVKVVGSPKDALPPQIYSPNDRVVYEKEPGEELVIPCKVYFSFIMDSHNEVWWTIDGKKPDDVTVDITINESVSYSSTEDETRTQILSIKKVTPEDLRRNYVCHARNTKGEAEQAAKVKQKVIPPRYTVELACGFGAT

T5: rat IL1RAP ECD displayed on HEK-293F cells (pDisplay) (rat, UniProt Q63621 21-367)
T5 sequence: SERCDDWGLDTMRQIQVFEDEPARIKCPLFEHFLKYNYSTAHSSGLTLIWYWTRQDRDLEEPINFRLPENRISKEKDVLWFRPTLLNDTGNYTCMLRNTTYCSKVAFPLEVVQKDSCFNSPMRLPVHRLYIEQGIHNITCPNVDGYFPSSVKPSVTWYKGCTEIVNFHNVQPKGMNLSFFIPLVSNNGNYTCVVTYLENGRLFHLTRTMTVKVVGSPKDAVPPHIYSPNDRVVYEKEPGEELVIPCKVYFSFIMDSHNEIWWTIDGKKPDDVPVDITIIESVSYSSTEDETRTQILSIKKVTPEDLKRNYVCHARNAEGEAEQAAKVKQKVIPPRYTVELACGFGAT

T6: human FcγRIIb (human, UniProt P31994 43-217, limits assumed)
T6 construct: GST-tagged
T6 sequence (looked up): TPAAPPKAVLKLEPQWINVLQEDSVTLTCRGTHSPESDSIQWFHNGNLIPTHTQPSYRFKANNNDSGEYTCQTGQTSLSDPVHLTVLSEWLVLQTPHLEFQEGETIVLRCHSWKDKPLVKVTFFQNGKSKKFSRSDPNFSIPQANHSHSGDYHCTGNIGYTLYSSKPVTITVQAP

B1: IAPB57 (antibody, human IgG4 S228P, kappa, F234A L235A)
heavy: not shown
light: DIQLTQSPSFLSASVGDRVTITCRASQGISSYLAWYQQKPGKAPKLLIYAASTLQSGVPSRFSGSGSGTEFTLTISSLQPEDFATYYCQQVNSYPLTFGGGTKVEIKRTVAAPSVFIFPPSDEQLKSGTASVVCLLNNFYPREAKVQWKVDNALQSGNSQESVTEQDSKDSTYSLSSTLTLSKADYEKHKVYACEVTHQGLSSPVTKSFNRGEC
notes: IgG4-PAA; whole chains
B2: IAPB47 (antibody, human IgG4 S228P, kappa, F234A L235A, V domains shown)
VH: EVQLVQSGAEVKKPGESLKISCKGSGYSFTSYWIGWVRQMPGKGLEWMGIIYPSDSYTRYSPSFQGQVTISADKSISTAYLQWSSLKASDTAMYYCARRNSAENYADLDYWGQGTLVTVSS
VL: EIVLTQSPGTLSLSPGERATLSCRASQSISNDLNWYQQKPGKAPKLLIYYASSLQSGVPSRFSGSGSGTDFTLTINSLQPEDFATYYCQQSFTAPLTFGQGTKVEIKR
notes: IgG4-PAA; whole chains
B3: IAPB09 (antibody, human IgG4 S228P, kappa, F234A L235A, V domains shown)
VH: QVQLVQSGAEVKKPGSSVKVSCKASGGTFSSYAISWVRQAPGQGLEWMGWISPIFGTANYAQKFQGRVTITADESTSTAYMELSSLRSEDTAVYYCARRYDNFARSGDLDYWGQGTLVTVSS
VL: not shown
notes: IgG4-PAA; whole chains; also called IAPB9
B4: IAPB17 (antibody, human IgG4 S228P, kappa, F234A L235A, V domains shown)
VH: QVQLVQSGAEVKKPGSSVKVSCKASGGTFSSYAISWVRQAPGQGLEWMGGIIPIFGNANYAQKFQGRVTITADESTSTAYMELSSLRSEDTAVYYCARTIIYLDYVHILDYWGQGTLVTVSS
VL: not shown
notes: IgG4-PAA; whole chains
B5: CD3B219 - CD3B219 Parental, IgG4 PAA (antibody)
heavy chain: EVQLVESGGGLVQPGGSLRLSCAASGFTFNTYAMNWVRQAPGKGLEWVARIRSKYNNYATYYAASVKGRFTISRDDSKNSLYLQMNSLKTEDTAVYYCARHGNFGNSYVSWFAYWGQGTLVTVSSASTKGPSVFPLAPCSRSTSESTAALGCLVKDYFPEPVTVSWNSGALTSGVHTFPAVLQSSGLYSLSSVVTVPSSSLGTKTYTCNVDHKPSNTKVDKRVESKYGPPCPPCPAPEAAGGPSVFLFPPKPKDTLMISRTPEVTCVVVDVSQEDPEVQFNWYVDGVEVHNAKTKPREEQFNSTYRVVSVLTVLHQDWLNGKEYKCKVSNKGLPSSIEKTISKAKGQPREPQVYTLPPSQEEMTKNQVSLTCLVKGFYPSDIAVEWESNGQPENNYKTTPPVLDSDGSFLLYSKLTVDKSRWQEGNVFSCSVMHEALHNHYTQKSLSLSLGK
light chain: QTVVTQEPSLTVSPGGTVTLTCRSSTGAVTTSNYANWVQQKPGQAPRGLIGGTNKRAPGTPARFSGSLLGGKAALTLSGVQPEDEAEYYCALWYSNLWVFGGGTKLTVLGQPKAAPSVTLFPPSSEELQANKATLVCLISDFYPGAVTVAWKADSSPVKAGVETTTPSKQSNNKYAASSYLSLTPEQWKSHRSYSCQVTHEGSTVEKTVAPTECS

Each binder was assayed against T1, recombinant human IL1RAP ECD (assay: SPR, summary).
Binder B1 has a Kd of 0.16 nM.
In the case of B2, the Kd is reported as 1.24 nM.
Binder B3 has a Kd of 6.59 nM.
For B4, the Kd was 8.51 nM.

Each binder was assayed against T1, recombinant human IL1RAP ECD (assay: SPR (ProteOn)).
Protocol: The rates of IL1RAP ECD association and dissociation were measured for each variant. The biosensor surface was prepared by covalently coupling Goat anti-Human IgG (Fc) to the surface of a GLC chip (BioRad) using the manufacturer instructions for amine-coupling chemistry. […] The RU immobilized also included a goat anti-mouse Fc antibody that was added to capture other antibodies not included in the ones reported here. Since the mixture was 1:1 about 50% of these RU immobilized are expected to be goat anti-human Fc. The kinetic experiments were performed at 25° C. in running buffer (PBS pH 7.4, 0.005% P20, 3 mM EDTA). […] (1:3) serial dilutions of human IL1RAP ECD, starting at 400 nM were prepared in running buffer. […] The reference spots (Goat anti-Human IgG (Fc)-modified surface) containing no candidate captured were used as a reference surface. Capture of mAb was followed by a 3 minute injection (association phase) of antigen at 40 μL/min, followed by 10 minutes of buffer flow (dissociation phase). […] Data was processed on the instrument software. Double reference subtraction of the data was performed by subtracting the curves generated by buffer injection from the reference-subtracted curves for analyte injections. Kinetic analysis of the data was performed using 1:1 Langmuir binding model with group fit.
Binder B2 has a Kd of 1.24 nM, a koff of 0.000811 s⁻¹ and a kon of 653000 M⁻¹ s⁻¹.
B3 showed a Kd of 6.59 nM, a koff of 0.00379 s⁻¹ and a kon of 574000 M⁻¹ s⁻¹.
With B4 the Kd was 8.51 nM, the koff was 0.00719 s⁻¹ and the kon was 844000 M⁻¹ s⁻¹.

Each binder was assayed against T2, recombinant cyno IL1RAP ECD (assay: recombinant protein).
B1: binds.
B2: binds.
B3: binds.
B4: binds.

The binders below were run against T3, cyno IL1RAP ECD displayed on HEK-293F … (assay: HEK-293F cells (MSD)).
B1: binds.
B2: binds.
B3: binds.
B4: binds.

These binders were tested against T4, mouse IL1RAP ECD displayed on HEK-293F … (assay: HEK-293F cells (MSD)).
B2: binds.
B3: binds.
B4: binds.

What follows are binders tested against T5, rat IL1RAP ECD displayed on HEK-293F … (assay: HEK-293F cells (MSD)).
B2: binds.
B3: binds.
B4: binds.

What follows are binders tested against T7, human FcRn (human, UniProt P55899 24-297; P61769 21-119, limits assumed) (assay: AlphaScreen competition, human FcRn (n=1); displaced: biotinylated control mAb B21M WT IgG1 (m27); pH 6.0).
T7 construct: GST-tagged
Excerpt: (§1) Measurements were made using an AlphaScreen™ assay (Amplified Luminescent Proximity Homogeneous Assay (ALPHA), PerkinElmer, Wellesley, Mass.), a bead-based luminescent proximity assay. Laser excitation of a donor bead excites oxygen, which if sufficiently close to the acceptor bead generates a cascade of chemiluminescent events, ultimately leading to fluorescence emission at 520-620 nm.
For B1, the “IC50 (read off the curve)” value was about 200 nM.
B5 was tested, and the “IC50 (read off the curve)” value was about 200 nM.

What follows are binders tested against T6, human FcγRIIb (assay: AlphaScreen competition, human FcγRIIb (n=1); displaced: biotinylated control mAb B21M hIgG1 WT; pH 7.2).
Excerpt: as §1
B1: binds.
B5: binds.

Each binder was assayed against T8, human FcγRI (human, UniProt P12314 16-292, limits assumed) (assay: AlphaScreen competition, human FcγRI (n=1); displaced: biotinylated control mAb B21M hIgG1 AlaAla; pH 7.2).
T8 construct: GST-tagged, on glutathione acceptor beads; also called FcγRT [sic]
Excerpt: as §1
In the case of B1, the “IC50 (read off the curve)” value is reported as about 100 nM.
For B5, the “IC50 (read off the curve)” value was about 60 nM.
